This passage reports OD450 and EC50 results from EP4682166A1 (Guangzhou Enmai Biotechnology Co., Ltd, dated 2026).

For experiment [1], the target named is T1, human NMI (N-myc Interacting protein), recombinant protein (human, UniProt Q13287 1-307, limits assumed).
T1 construct: Gene ID: 9111; also called hNMI; antigen
T1 sequence (looked up): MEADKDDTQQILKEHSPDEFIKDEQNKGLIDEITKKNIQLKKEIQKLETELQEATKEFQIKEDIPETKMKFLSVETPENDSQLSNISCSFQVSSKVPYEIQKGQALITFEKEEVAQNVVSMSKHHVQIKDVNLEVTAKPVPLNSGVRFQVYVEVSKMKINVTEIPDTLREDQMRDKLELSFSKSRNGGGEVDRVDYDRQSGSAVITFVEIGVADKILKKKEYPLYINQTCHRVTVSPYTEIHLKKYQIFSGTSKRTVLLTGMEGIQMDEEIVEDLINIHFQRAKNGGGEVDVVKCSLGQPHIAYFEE
The experiment can be described thus: sandwich ELISA; detection 94C4-1-biotin 1µg/mL; hNMI 25,000.000 pg/mL. (An ELISA detects its analyte on a solid surface through an enzyme-linked reagent.)

Experiment [2] addresses T1, human NMI (N-myc Interacting protein), …. The experiment can be described thus: sandwich ELISA; detection 94C4-1-biotin 0.5µg/mL; hNMI 12,500.000 pg/mL.
Experiment [3] shares this target. As to the kind of experiment: sandwich ELISA; detection 94C4-1-biotin 1µg/mL; hNMI 781.250 pg/mL.
Experiment [4] has the same target. As to the kind of experiment: sandwich ELISA; detection 94C4-1-biotin 1µg/mL; hNMI 3,125.000 pg/mL.
For experiment [5] the target is unchanged. As to the kind of experiment: sandwich ELISA; detection 94C4-1-biotin 0.5µg/mL; hNMI 1,562.500 pg/mL.
Experiment [6] shares this target. The experiment can be described thus: sandwich ELISA; detection 94C4-1-biotin 1µg/mL; hNMI 1,562.500 pg/mL.
Experiment [7] has the same target. The experiment can be described thus: sandwich ELISA; detection 94C4-1-biotin 1µg/mL; hNMI 97.656 pg/mL.
Experiment [8] has the same target. As to the kind of experiment: sandwich ELISA; detection 94C4-1-biotin 0.5µg/mL; hNMI 390.625 pg/mL.
The target is the same in experiment [9]. As to the kind of experiment: sandwich ELISA; detection 94C4-1-biotin 1µg/mL; hNMI 50,000.000 pg/mL.
For experiment [10] the target is unchanged. The experiment can be described thus: sandwich ELISA; detection 94C4-1-biotin 1µg/mL; hNMI 6,250.000 pg/mL.
For experiment [11] the target is unchanged. As to the kind of experiment: sandwich ELISA; detection 94C4-1-biotin 0.5µg/mL; hNMI 50,000.000 pg/mL.
For experiment [12] the target is unchanged. As to the kind of experiment: sandwich ELISA; detection 94C4-1-biotin 0.5µg/mL; hNMI 195.313 pg/mL.
Experiment [13] shares this target. The experiment can be described thus: sandwich ELISA; detection 94C4-1-biotin 1µg/mL; hNMI 390.625 pg/mL.
For experiment [14] the target is unchanged. The experiment can be described thus: sandwich ELISA; detection 94C4-1-biotin 0.5µg/mL; hNMI 781.250 pg/mL.
Experiment [15] has the same target. As to the kind of experiment: sandwich ELISA; detection 94C4-1-biotin 0.5µg/mL; hNMI 25,000.000 pg/mL.
For experiment [16] the target is unchanged. The experiment can be described thus: sandwich ELISA; detection 94C4-1-biotin 1µg/mL; hNMI 12,500.000 pg/mL.
Experiment [17] has the same target. As to the kind of experiment: sandwich ELISA; detection 94C4-1-biotin 0.5µg/mL; hNMI 3,125.000 pg/mL.
For experiment [18] the target is unchanged. As to the kind of experiment: indirect ELISA, coated hNMI.
Experiment [19] has the same target. The experiment can be described thus: sandwich ELISA; detection 94C4-1-biotin 0.5µg/mL; hNMI 48.828 pg/mL.
For experiment [20] the target is unchanged. The experiment can be described thus: ELISA, binding to hNMI.
Experiment [21] shares this target. As to the kind of experiment: sandwich ELISA; detection 94C4-1-biotin 0.5µg/mL; hNMI 97.656 pg/mL.
Experiment [22] shares this target. The experiment can be described thus: sandwich ELISA; detection 94C4-1-biotin 1µg/mL; hNMI 48.828 pg/mL.
The target is the same in experiment [23]. As to the kind of experiment: sandwich ELISA; detection 94C4-1-biotin 0.5µg/mL; hNMI 6,250.000 pg/mL.
For experiment [24] the target is unchanged. The experiment can be described thus: ELISA, binding to hNMI. The source holds these as a separate data set.
Experiment [25] shares this target. As to the kind of experiment: sandwich ELISA; detection 94C4-1-biotin 1µg/mL; hNMI 195.313 pg/mL.

B1: monoclonal antibody 98G10 (antibody, V domains shown)
VH: QEQLEESGGDLVKPEGSLTLTCTASGFSFSASYWICWVRQAPGKGLEWIACIYGGSSGSAYYASWAKGRFTISKTSSTTVTLQMTSLTAADTATYFCARAGYYNYGSAGDIYPSSFKLWGPGTLVTVSS
VL: DIVMTQTPASVEAAVGGTVTINCQASQSISTALAWYQQKPGQPPKLLIYTASKVASGVPSRFSGSGSGTQFTLTISDLECADAATYYCQNYYYSSSSITFGGGTEVVVK
notes: Rabbit monoclonal antibody
A word on the EC50: it is the concentration giving half of the maximal effect. For the molecule B1, the OD450 in experiment [1] came to 2.74 OD450; in experiment [2], 2.44 OD450; in experiment [3], 0.341 OD450; in experiment [4], 0.903 OD450; in [5], 0.596 OD450; in experiment [6] it was 0.525 OD450. Also, the OD450 in [7] was 0.149 OD450; in experiment [8] it was 0.219 OD450; in [9] it was 3.04 OD450; in experiment [10] it was 1.53 OD450; in experiment [11] it was 3.25 OD450; in experiment [12], 0.159 OD450. In addition, the OD450 in experiment [13] worked out at 0.233 OD450; in experiment [14], 0.377 OD450; in experiment [15] it was 2.87 OD450; in experiment [16], 2.31 OD450; in experiment [17], 0.958 OD450; in experiment [19] it was 0.108 OD450. Further, the OD450 in [21] was 0.126 OD450; in experiment [22], 0.134 OD450; in [23] it was 1.6 OD450; in experiment [25] it was 0.179 OD450. In addition, the EC50 in experiment [18] was 0.071 µg/mL; in experiment [20], 0.031 µg/mL; in [24], 0.165 nM.

B2: monoclonal antibody 39B4 (antibody, V domains shown)
VH: QEQLVESGGGLVQPEGSLTLTCTASGFSFSSSYWICWVRQAPGKGLEWIACIYAGTSGSTYYASWAKGRFTISKTSSTTVDLQMNSLTAADTATYFCARAGYYTYGAGVYIYPSSFKLWGPGTLVTVSS
VL: DVVMTQTPASVEAAVGGTVTIKCQASESIGNALAWYQQKPGQPPKLLIYSASNLASGVPSRFSGSGSGTQFTLTISDLECADAATYYCQSYYYSSSSITFGGGTEVVVK
notes: Rabbit monoclonal antibody; also called 39B4-1
For B2, the OD450 in [1] turned out to be 2.75 OD450; in experiment [2], 2.3 OD450; in [3] it was 0.381 OD450; in experiment [4], 0.932 OD450; in experiment [5], 0.593 OD450; in experiment [6], 0.547 OD450. Besides, the OD450 in [7] worked out at 0.169 OD450; in experiment [8], 0.25 OD450; in experiment [9] it was 3.1 OD450; in [10] it was 1.52 OD450; in [11] it was 3.16 OD450; in experiment [12], 0.179 OD450. In addition, the OD450 worked out at 0.251 OD450 in experiment [13]; 0.387 OD450 in [14]; 2.75 OD450 in [15]; 2.15 OD450 in experiment [16]; 0.96 OD450 in [17]; 0.13 OD450 in [19]. Moreover, the OD450 in [21] is 0.143 OD450; in experiment [22] it was 0.145 OD450; in experiment [23] it was 1.56 OD450; in experiment [25], 0.207 OD450. In addition, the EC50 in experiment [18] worked out at 0.0535 µg/mL.
